Source: patent US10508147B2, “Anti-nodal antibodies and methods of using same” (ANN AND ROBERT H. LURIE CHILDREN'S HOSPITAL OF CHICAGO, priority 2014, dated 2019)
“Also recorded” adds a separate entry of the source.

Experiments:
[1] = target: T1, native Nodal protein in LCP, A375 and WM266 melanoma cells (Homo sapiens, UniProt Q96S42); test: FACS staining of Nodal in fixed and permeabilized human melanoma cell lines with 3D1; type: binding; conditions: 0.1-2.0 μg/mL, dose-dependent
T1 construct: recognize the endogenous forms of Nodal protein in human melanoma cells; endogenous in cells; host or cells: human melanoma lines PES, A-375, SK-MEL, WM 266, LCM (blot); LCP, A375, WM266 (FACS)
T1 sequence (Q96S42 238-347): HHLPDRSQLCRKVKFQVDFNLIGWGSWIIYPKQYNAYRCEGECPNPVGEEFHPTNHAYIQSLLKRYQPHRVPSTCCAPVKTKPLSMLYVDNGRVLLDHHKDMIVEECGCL
Method: LCP, A375 and WM266 melanoma cells were collected by centrifugation. After aspiration of supernatant, the cells were resuspended in 500 μL of PBS and formaldehyde was added to obtain a final concentration of 4%. Cells were fixed for 10 min at room temperature. After fixation, cells were permeabilized by adding 500 μL of PBS-Tween 20. 1×10^6 cells were aliquoted into each vial; 1 mL of PBS (incubation buffer) was added to each vial and cells were washed by centrifugation at 4000 rpm for 5 min at 4° C. Cells were resuspended in 100 μL of solution of 3D1 anti-Nodal antibody (primary antibody), diluted in PBS at the following concentrations: 0.1, 0.5, 1.0 and 2.0 μg/mL. A standard IgG1 isotype was used as negative control. Cells were incubated with the primary antibody for 1 h at 4° C. under shaking. After incubation, cells were washed by centrifugation in 1 mL of PBS, resuspended and incubated with a FITC-conjugated anti-mouse antibody (secondary antibody), diluted 1:1000 (1.0 μg/mL) in PBS, for 40 min at 4° C. in the dark under stirring. Cells were washed by centrifugation with 1 mL of incubation buffer, re-suspended in […] and analyzed on flow cytometer. Fluorescence was evaluated using the BD FACScalibur System.

C8161 melanoma cells = test: Soft agar clonogenic / anchorage independent growth assay; type: cell-based, human; conditions: three weeks in soft agar, vs untreated and IgG control
Method: (§1) Untreated cells, or cells treated with either IgG Control or 3D1 anti-Nodal antibody for 72 hours were cultured in soft agar for three weeks (soft agar clonogenic assay). […] C8161 cells were treated with either 4 μg/ml of either Santa Cruz (SC), or 3D1 function blocking anti-Nodal antibodies, or IgG Control and cultured in three dimensional cultures for 24 hours to measure their ability to engage in vasculogenic mimicry (VM).
C8161 melanoma cells (5,000 cells/well) were suspended in 0.35% agarose, RPMI 1640; 10% serum with of either 4 μg/ml mouse IgG control (Jackson ImmunoResearch, West Groove, Pa.) or 3D1 mAb (2.8 μg/ml) and were then overlayed onto a solidified layer of 0.5% agar; RPMI 1640; 10% serum in 6-well dishes. Cell clusters were allowed to form and were scored (50 cells or larger clusters) after 3 weeks in culture. Triplicate wells were averaged from separate experiments and presented as a percentage (mean±SEM) of IgG control.

C8161 cells = test: Vasculogenic mimicry / vasculogenic network formation assay in 3D culture; type: cell-based, human; conditions: 24 hours, vs IgG control
Method: as §1
Three-dimensional matrices were prepared by spreading 75 μl of ice-cold Matrigel (average 12-15 mg/ml; Corning, Bedford, Mass.) into 12-well culture dishes and polymerized for one hour at 37° C. C8161 human melanoma cells (1×10^5 cells/well) were then plated onto the prepared Matrigel matrices in the presence of either 4 μg/ml mouse IgG control or 3D1 mAb (2.8 μg/ml). No additional antibody was added. Tubular network formation was then observed after 24 hr and images captured digitally using a Zeiss model 25 inverted microscope (Carl Zeiss, Inc, Thornwood, N.Y.) and Hitachi HV-C20 CCD camera (Hitachi Denshi Ltd., Woodbury, N.Y.). Mean values were calculated from images of at least four different fields of both the IgG control and 3D1 mAb treated cultures, and then analyzed using the AngioSys software package (TCS CellWorks, Ltd., Buckingham, UK) with the mean number (±SEM) of junctions and tubules calculated from the analyzed fields.

recombinant Nodal = target: T2, recombinant Nodal (Homo sapiens, UniProt Q96S42); test: SPR dose-dependent binding of human recombinant Nodal to 3D1 immobilized on the CM5 sensor chip; design: E. coli derived His238 Leu347, with an N-terminal Met; purchased R&D System 3218ND; host or cells: E. coli; conditions: rhNodal injected, read-out: estimated KD
T2 sequence (Q96S42 238-347): T1 sequence (Q96S42 238-347)
Text: Dose-dependent binding of human recombinant Nodal to 3D1 antibody immobilized on the CM5 sensor chip was characterized.

B1: 3D1: mouse monoclonal anti-Nodal antibody raised against hNodal(44-67); light chain SEQ ID NO:1, heavy chains SEQ ID NO:2 and 3 (protein)
light: DIKMTQSPASLSASVGETVTITCRASGNIHNYLAWYQQKQGKSPQLLVYNAKTLADGVPSRFSGSGSGTQYSLKINSLQPEDFGSYYCQHFWSTPHVRCWDQAGTETEAW
heavy 1: VKLVESGGGLVKPGGSLKLSCAASGFTFSSYAMSWVRQTPEKRLEWVASISSGGCTYYPDSVKGRFTISRDNARNILYLQMSSLRSEDTAMYYCARGSMITADGNSLLLCYGLLGSRNLXHR
heavy 2: VKLVESGGGLVQPGGSMKLSCVASGFTFRNYWMSWVRQSPEKGLEWVAEIRLKSDNYAARYAESVKGKFTISRDDSKSRLYLQMNSLRAEDTGIYYCTGIRRFAYWGQGTL
modifications: not fully specified; (120)..(120) Xaa can be any naturally occurring amino acid
binding to native Nodal protein in cells (FACS) [1]: bound native Nodal protein also in intact cells at very low concentrations
clonogenicity / anchorage independent growth in soft agar (C8161 melanoma cells): a decrease in clonogenicity
clonogenicity / anchorage independent growth in soft agar (C8161 melanoma cells; listed as 3D1 mAb): reduced ability to form non-adherent spheroidal clusters; also recorded: significant reduction in anchorage independent growth
formation of vasculogenic mimicry networks (junctions and tubules) (C8161 cells): did not complete the formation of networks
formation of vasculogenic mimicry networks (junctions and tubules) (C8161 cells; listed as 3D1 mAb): unable to form complete networks characteristic of VM; also recorded: significant reduction in the ability to form junctions and tubules
Kd (recombinant Nodal): 6.6 nM
